Reference: patent US20260000742

Molecular target: mature TGF-β1, P04202
Sequence (P04202 279-390): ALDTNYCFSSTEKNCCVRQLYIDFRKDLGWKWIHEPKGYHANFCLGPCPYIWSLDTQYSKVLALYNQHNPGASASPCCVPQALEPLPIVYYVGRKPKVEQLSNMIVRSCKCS

B1: Htra3 tagged with FLAG at the C-terminus (Htra3-flag protein) (protein)
chain: REPPAAPCPARCDVSRCPSPRCPGGYVPDLCNCCLVCAASEGEPCGRPLDSPCGDSLECVRGVCRCRWTHTVCGTDGHTYADVCALQAASRRALQVSGTPVRQLQKGACPSGLHQLTSPRYKFNFIADVVEKIAPAVVHIELFLRHPLFGRNVPLSSGSGFIMSEAGLIVTNAHVVSSSSTASGRQQLKVQLQNGDAYEATIQDIDKKSDIATIVIHPKKKLPVLLLGHSADLRPGEFVVAIGSPFALQNTVTTGIVSTAQRDGKELGLRDSDMDYIQTDAIINYGNSGGPLVNLDGEVIGINTLKVAAGISFAIPSDRITRFLSEFQNKHVKDWKKRFIGIRMRTITPSLVEELKAANPDFPAVSSGIYVQEVVPNSPSQRGGIQDGDIIVKVNGRPLADSSELQEAVLNESSLLLEVRRGNDDLLFSIIPEVVM
**Q.** How did the “protein levels of TGF-β1 and phosphorylated Smad2/3 in primary cardiac fibroblasts (western blot)” value turn out when B1 was run?
**A.** overexpression of Htra3 reduced the protein levels of both TGF-β1 and phosphorylated Smad2/3 (phospho-Smad2/3), a marker of activated TGF-β signaling
